Biological target: nCBP-2^L51F (yeast two-hybrid fusion) (cassava)
Experiment: two-hybrid

“CBSV Naliendele VPg fused to the B42 transcriptional activation domain (natural protein)” was tested, and the fold less reporter activity than with nCBP-2 was 8 fold.
